Reference: IntAct's records for PubMed 19236849

B1: NAD-dependent protein deacetylase sirtuin-1 (Homo sapiens), Q96EB6 (parent)
chain: MADEAALALQPGGSPSAAGADREAASSPAGEPLRKRPRRDGPGLERSPGEPGGAAPEREVPAAARGCPGAAAAALWREAEAEAAAAGGEQEAQATAAAGEGDNGPGLQGPSREPPLADNLYDEDDDDEGEEEEEAAAAAIGYRDNLLFGDEIITNGFHSCESDEEDRASHASSSDWTPRPRIGPYTFVQQHLMIGTDPRTILKDLLPETIPPPELDDMTLWQIVINILSEPPKRKKRKDINTIEDAVKLLQECKKIIVLTGAGVSVSCGIPDFRSRDGIYARLAVDFPDLPDPQAMFDIEYFRKDPRPFFKFAKEIYPGQFQPSLCHKFIALSDKEGKLLRNYTQNIDTLEQVAGIQRIIQCHGSFATASCLICKYKVDCEAVRGDIFNQVVPRCPRCPADEPLAIMKPEIVFFGENLPEQFHRAMKYDKDEVDLLIVIGSSLKVRPVALIPSSIPHEVPQILINREPLPHLHFDVELLGDCDVIINELCHRLGGEYAKLCCNPVKLSEITEKPPRTQKELAYLSELPPTPLHVSEDSSSPERTSPPDSSVIVTLLDQAAKSNDDLDVSESKGCMEEKPQEVQTSRNVESIAEQMENPDLKNVGSSTGEKNERTSVAGTVRKCWPNRVAKEQISRRLDGNQYLFLPPNRYIFHGAEVYSDSEDDVLSSSSCGSNSDSGTCQSPSLEEPMEDESEIEEFYNGLEDEPDVPERAGGAGFGTDGDDQEAINEAISVKQEVTDMNYPSNKS

Variants of: B1
Settings: with csk21_human CSNK2A1, P68400
csk21_human CSNK2A1, P68400, sequence (P68400 whole entry, looked up): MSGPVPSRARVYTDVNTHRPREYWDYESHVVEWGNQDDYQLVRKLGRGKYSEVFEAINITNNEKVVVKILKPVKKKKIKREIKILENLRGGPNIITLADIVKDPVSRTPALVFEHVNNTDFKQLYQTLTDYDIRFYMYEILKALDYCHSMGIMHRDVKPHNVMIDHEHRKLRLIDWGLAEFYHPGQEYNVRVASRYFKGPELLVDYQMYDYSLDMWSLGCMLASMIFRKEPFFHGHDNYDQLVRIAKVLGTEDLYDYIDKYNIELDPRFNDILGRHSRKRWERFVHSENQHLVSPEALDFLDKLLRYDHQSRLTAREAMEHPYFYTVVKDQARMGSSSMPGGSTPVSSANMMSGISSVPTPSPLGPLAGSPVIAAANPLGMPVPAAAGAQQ

effect of a mutation on the interaction | Variant
decreasing interaction | S659A;S661A
